In the DeepSol protein solubility set:

Experiment: soluble on expression in E. coli; label from the status in PepcDB or PDB records

Sequence	soluble on expression in E. coli
MTHVTLRSEFETLIDPYAPVAQVGTGFDFTEGPIWHPIDHYLLFSDMPGDVRRRWDARRGMAEVKRPSNKCNGMTYDAELNLIVCEHATSSLIRERPDGRREVLASHFGGQELNSPNDVCVHSSGAIYFSDPWYGRMPVYGVERPRQLGFQGVYRVMPGGEPKLVVDRNLFDQPNGLCFSPDERLLYVNDTVQALIRVFDVNADGTLSNARVFASSIKSELEPGLPDGMKCDQHGNVWVTAPGGVWVYSPRGELLGKVRVPELVANLAWGGPDFRTLYLTSTHSVYAIPTRVGPRHEPYMSGRRGGAGASAGPAAAAPILTDGEMRLDPQRCAMIIQDLQNDVIMDGGAFDGSGAPAHAKQQHVVENVRRLAEAARARGVAIIHVWFVVEPGAPGVTLNAPLFEGLVDSKAMVRGSWGAAPVSGLEPRPGDFVVEKMRMSAWEGTRLETILKATGRDMIINTGAWTNMSVEHTARTGADKGYFMIVPEDCCSTMNADWHSASINFAMQNVAIVTRADAVIRALGLEHHHHHH	not soluble
MSLRELQNALYFSEVVFGPNLEKIVGEKRLNFWLKLIGEDPENLKEFLSRKGNSFEEQTLPEKEAIVPNRLGEEALEKVREELEFLNTYSTKHVRRVKELGVQIPFEGILLPFISMYIEKFQQQQLRKKIGPIHEEIWTQIVQDITSKLNAILHRTLILELNVARVTSQLKGDTPEERFAYYSKTYLGKREVTHRLYSEYPVVLRLLFTTISHHISFITEILERVANDREAIETEFSPCSPIGTLASLHLNSGDAHHKQRTVTILEFSSSLKLVYKPRSLKVDGVFNGLLAFLNDRTGEVIKDQYCPKVLQRDGYGYVEFVTHQSCQSLEEVSDFYERLGSLMSLSYVLNSSDFHFENIIAHGPYPVLIDLETIIHNTADSSEETSTAMDRAFRMLNDSVLSTGMLPSSIYYRDQPNMKGLNVGGVSKSEGQKTPFKVNQIANRNTDEMRIEKDHVTLSSQKNLPIFQSAAMESVHFLDQIQKGFTSMYQWIEKNKQEFKEQVRKFEGVPVRAVLRSTTRYTELLKSSYHPDLLRSALDREVLLNRLTVDSVMTPYLKEIIPLEVEDLLNGDVPYFYTLPEERALYQEASAINSTFFTTSIFHKIDQKIDKLGIEDHTQQMKILHMSMLASNANHYADVADLEGHHHHHH	soluble
MGSDKIHHHHHHMLKNDRWITEQAAAGMLEPFQAGLIRHLDPEQHQRPVLSFGCSSFGYDLRLSAKEFLIFRHVPGTVMNPKRFNPANLESTPLHQDEDGEYFILPAHSYGLGVALEKMKVPSNITVICLGKSTYARLGIIVNTTPAEASWEGHLTLEFSNSSGADCRIYANEGICQLLFFEGDPCDTTYSDRQGKYQHQPERVTLARI	not soluble
DFDFEGNLALFDKAAVFEEIDTYERRSGTRSRGIPNERPTRYRHDENILESEPIVYRRIIVPHNVSKEFCTDSGLVVPSISYELHKKLLSVAEKHGLTLERRLEMTGVCASQMALTLLGGPNRLNPKNVHQRPTVALLCGPHVKGAQGISCGRHLANHDVQVILFLPNFVKMLESITNELSLFSKTQGQQVSSLKDLPTSPVDLVINCLDCPENVFLRDQPWYKAAVAWANQNRAPVLSIDPPVHEVEQGIDAKWSLALGLPLPLGEHAGRIYLCDIGIPQQVFQEVGINYHSPFGCKFVIPLHSA	soluble
MGSDKIHHHHHHMSAMLTVEGLGKSYRVWGSEWLRAASWFGLKVKPREEHWVLRNVGFSVTAGESIGIMGRNGAGKSTLLKLITGTSQPTEGRIVRRGRIAAILELGMGFNPDLSGRENARHSAGLMGYTLDQIEAVLPEIQEFAEIGDYFDEPVRTYSSGMQVRVAFAVATAFRPDVLIVDEALSVGDVYFQAKCFKRILSFKEKGMTLILVSHSVGDVVKHCDRAILIKDGGVYADGPSREVSNLYLDELFGKKPASLQAEAKDTPKDLRAGTEDLFHTRPYYNAGEHRWGQGGARILDYVVVSDGQEFPARVESGSRTAFYVKIAFDQDFDSVVPGILVKTLEGLFLYGTNSFLSSEGRTGIAAKAGDVIVCKFTMPLDLNEANYLISLGISSGDPLVELTPLDRRYDAIVLNVARGMQFWGMMDLKADFEIVEALS	not soluble
MGSDKIHHHHHHMTVSKTKAKLVDVARQLFAKMGVENTTMNDIALASKKGRRTLYTYFKSKDEIYLAVVESELDILSDMMKRVADKDISPDKKIIEMIYTRLDAVKEVVYRNGTLRANFFRDIWRVEKVRKRFDAKEMQLFKSVLKEGQDKGVFHVDDVEMTAALVHYCVKGIEVPYIRGHIGANLDMETRKRYVANIVFGALHRTEINQ	not soluble
MKPKPSQFKNLERMLGLKTEQLDAVKVTIELKDKILIIENPTVIKMIAQGQEIYSVIGEAKEAQKEEPKVEIKDEDVKFVMEQTGKGEQEVKEALQKANGDIAKAILLLTGQET	soluble
MRNKDLEPHSFELWLNAAKTNLDKYEMALIITATLGLRRGEVMGLRNESIKISHDQINDADVAQISIDMQRNTNELNGGPLKTKSSYRTIWAFGKTVDHLKYAMITADNLRQRNNIQAEKHWLWLNNDGNPLHPTHLNRLMRRVSNRSGVEVYPHLLRHYFATQAIAANKPQIDVMHYLGHKNLQMTADYTRSTKAASLNVFNSIDKFLLEHHHHHH	not soluble
KEKVKEPVKHLNSKNFDEFITKNKIVVVDFWAEWCAPCLILAPVIEELANDYPQVAFGKLNTEESQDIAMRYGIMSLPTIMFFKNGELVDQILGAVPREEIEVRLKSLLE	soluble
MGSDKIHHHHHHAIKNCQIHTFSLSHDSVSGLDTVKFTIDQLTGRIFNIDSLPFGTKIEKVVCKIGFANSSVIGGVEASPEAYPDSTYYLSSLSDSIDFSAPVKFVVHAYDQVTTKVYMAQVNIHQVVPDSMVWSMYANPMIGITVKDQKVVTYDYNGSENYFMYVKPAESGKPYQLYYAPVSAPKGWQSLSLTGLPSDGLLISQITEYNNALYVPATNGTLYRSEDGLTWSAVENAPSVKYVLGSVKQGTKQPSALATIVDQEGKLAFYAMNESMEWIAGDAVPSGFPVTGFSNLQYAAMYHEYLMTASGRTVDNQVVNTTWATMDGISWALMASGDANFTKREGAMITNYDDKFFLIGGIDASNKALKDMYQSIDYGISWSLIDSMVVLPTDYAARGFSSIIVDKENFVNIFGGKISTGSNDLNQLWRGRINRLIPKE	not soluble
MGVFNYEIETTSVIPAARLFKAFILDGDNLVPKVAPQAISSVENIEGNGGPGTIKKINFPEGFPFKYVKDRVDEVDHTNFKYNYSVIEGGPVGDTLEKISNEIKIVATPDGGCVLKISNKYHTKGNHEVKAEQVKASKEMGETLLRAVESYLLAHSDAYN	soluble
MFSALRHRTAALALGVCFILPVHASSPKPGDFANTQARHIATFFPGRMTGTPAEMLSADYIRQQFQQMGYRSDIRTFNSRYIYTARDNRKNWHNVTGSTVIAAHEGKAPQQIIIMAHLDTYAPQSDADADANLGGLTLQGMDDNAAGLGVMLELAERLKNTPTEYGIRFVATSGEEEGKLGAENLLKRMSDTEKKNTLLVINLDNLIVGDKLYFNSGVKTPEAVRKLTRDRALAIARSHGIAATTNPGLNKNYPKGTGCCNDAEIFDKAGIAVLSVEATNWNLGNKDGYQQRAKTAAFPAGNSWHDVRLDNQQHIDKALPGRIERRCRDVMRIMLPLVKELAKAS	not soluble
QVQLLESGPELVEPGASVKVSCKASAYSITDFNIYWVKQSHGKNLEWIGGIDPHNGGPVYNQKFNGKATLTVDKSSSTAFMHLNSLTSEDSAVYYCAIFYGNFFDYWGPGTTVTVSSASTKGPSVFPLAPSSKSTSGGTAALGCLVKDYFPEPVTVSWNSGALTSGVHTFPAVLQSSGLYSLSSVVTVPSSSLGTQTYICNVNHKPSNTKVDKKVEPKSCDKTHT	soluble
MEYQFTHSIHGIVAKCSMEHEVFARWLNTEIIGHTQNLHNILAEIEKCRAAFPNHYECVFEGQEYSLYFDCDEVIVKVNNLAMAIDEVIVEEGLQLYDQESVAFCGLEDFERFLQAYHKFSSTYH	not soluble
MHDVMELRNLSMVDLQTFNTQFSKITDRYWREIFRRQNDSHHPDHINVSRLQTANIITVLDENLPQGAIQELTITGLIPKPFSSRRCEVMRYLRERLSCSPDVELSFQGDQLRITNPTLNLENVPVLSMEKH	not soluble
GPGSMPAYSEVKGTCGTPVLDQLIGYYVNIQSRKMYYKDFLRIEHQAVRWAFADIRKNSEALAHGLLQTGVRPGDRVLAIQPCNCETFVLQLSCAKIGALLCIVPQDTISADKLRFYLNEFQPRHLVAREWINVPEMKQGELVERNMHFWDTIYNVIPELGLSYPGQKFQWVHSQEFYYLKKIIITDHNMNLLGVTPMRKMLVWGPFSYYEQRLRRLSALLHPDDPVLALEDPNPAMEDKLHITYSHRNCVNAGFLFGQLMQLKAETRFGVMPNHHTDPIGAIIAPYAALTSGAVLVHIHSDMFTDDHAINGIEKLCVEEVETLVGRKADFDLILKHAGNFDADQFEHLRSVVIFEDGIEAPVSEEYLNKLSKALSLDDVYVFRGPIEASYMLTWRTLKKGSQGMVPHVEAKVVGDRGTSDAKVLVAGTRGNLRLKGPHVTAGYYNNAGLMTELIDEHGFASTSREAMIDGKDNITLMSAQTY	not soluble
MGSDKIHHHHHHMSWKLSIIRLLNKSLVPNQQRALVVFTVLLLCACGKAKIPFSPITVSQTPVTTAQFTDDIDTVSTLEAKEEVHLAAQASGRIIELKIDQGDQVQPGQMLVVLDQAQIRAELADFKAQEQKNKLNWQRYEFLVPQGAASALDRDEYKAQYIASREKVKATEATLAYSNLRSPISGIVADVDVKVGDVIRSGDPFTKLIRNNRLFARVEVPATFSDRIKIGLPVFLNKTGSSDVMATGEINSVGPTVNRTTQGLLVKAAFENANGSLRNGQRLRTRVQLDTREELSVPFAAVTQTSGQSFVYRVGSFQELEDFSGNISLDKLRKLPPSTRFALQTPVTLGKLQKQRYAVTKGLKLGEQVITTNLLKLRHGMPISVKN	not soluble
MGSDKIHHHHHHMMQPVINAPEIATAREQQLFNGKNFHVFIYNKTESISGLHQHDYYEFTLVLTGRYFQEINGKRVLLERGDFVFIPLGSHHQSFYEFGATRILNVGISKRFFEQHYLPLLPYCFVASQVYRTNNAFLTYVETVISSLNFRETGLEEFVEMVTFYVINRLRHYREEQVIDDVPQWLKSTVEKMHDKEQFSESALENMVALSAKSQEYLTRATQRYYGKTPMQIINEIRINFAKKQLEMTNYSVTDIAFEAGYSSPSLFIKTFKKLTSFTPKSYRKKLTEFNQ	not soluble
MGSDKIHHHHHHVDIQQIRNATLVVNYANQVFLIDPFLGEKGSLPPFGETPNAVPNPLVDLPVDVSTLLDPDAIFVTHLHADHFDETAKEILPKQIPLYAQNQADAATIREAGFTNVSSFENGLALGDIRVYHTSGRHGVGEIGQRMGTVSGLVLTHPDEPTLYIAGDTIWCEEVETAIEQHAPDIIIVNSGAAQFLTGEPITMSQRDLLAVHQAAAEATIIVSHLESVNHCLLRRDMIADFLAAHHLSAHFLIPDDGETISF	not soluble
GPGSMSEKEGKVIPETNGMKRPRFDPVKLGLPEEFTLTDYTRLKGCSCKVPQPELLALLQSVSTTPGRRDVGMDCSIVKLQHKDETGKPLYMVSTTDFFFPSVEDPYLQGQIGAANVLSDLYSTGIDRCDTVLMLLAASTDMDKTEREVCTQEMMKGFVDHVRLAGSDVTGGQTVMNPWPLIGGIATSVVAESQMIRPTGLQPGDILVLTKPLGCQIAVNLKQWLRRPSPIFEEQIQGKMDSEEIEELYNAAADGMKRLNRMAAALMHSHGAHGATDVTGFGILGHAKNLGSAQKADVCLVLDSLPMYRGAVKASKLMGDKYRLFEGYAAETSGGLLVAFGTREEAEGYIRELYETDGEPAWVVGRVVRREGSAPYALLQKDYKIIEVGAKVNDKII	soluble
